Results: the domain aggregation screens of Martell et al. (2025)

Experiment: soluble fraction after stress (log2 fold change); higher = more stays soluble; pooled small domains, quantitative proteomics
Details: stress: pH 4
In short: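 Pooled custom libraries of small protein domains were stressed at pH 4 and then measured by high-throughput quantitative proteomics. The fold change in the amount of each domain that stays soluble after the acid stress serves as a measure of aggregation propensity. Fold changes are given on a log2 scale, and higher values mean more of the domain stayed soluble.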

HMGEIILVPDVKAQGVSDARYTLNQAGLDAVIADSSYNRNSPPGAVLEQMPAPGSKVKSGHAIYLIINTT
soluble fraction (log2): 0.0604

HMSSFFLIDVSQVRIGMYIQLDVGWMRHPFPVNSFRITNQEQLDTLRSLNLAQVRWSPAKSDL
soluble fraction (log2): -1

HMKVSDPEAIKLIEQAQVKVIPFLDISEAADIQIALEELKNSEGTGQTDSAKVRLRNLLSPFSYL
soluble fraction (log2): -1.12

HMNLLPAGTYKLKDLVTAEDEEIGAKKGDVVIAHEDTPPSDRVLGVDIFPVIHKNTSKKIYVSLEDI
soluble fraction (log2): 0.101

HMSIMNEQIREILNQQVTKTSKIQQLLLLGLTRRQVADLVTNGNYGFVQNVYRNMLDAGIFTP
soluble fraction (log2): -0.487

HMDSVTMYATTGVNVRSGPSTSYSIVGGLDRGDKVTRIGTSGNWTKVVWGNGSAYVFSKYLQTGY
soluble fraction (log2): 0.232

HMPWLIAVTVDGVNLPRFLRRAGEMGLLLTGVRIRGKHLSAFAREDDVPPLRMMAENGGWRFSVGN
soluble fraction (log2): -0.302

HMGRPWRIGDVVNVSRPTGDGGGFTKGLITRIYPTTVQVTWNPDLQHARPWTTMEKKQYLIFVYHDDE
soluble fraction (log2): ≥ 0.43

HMQSYHVGDKVTIKNSASHWATGQSIYNGVKGHTYKIIQTNGHKLLLDQVISWINDGDVYKAGS
soluble fraction (log2): 0.0872

HMAGSGDLNAKYLASIPAPMKAKILKAVANHYGVSISEFEEEVTDKDAEALYEYIPTRSMAVQVLRDMKG
soluble fraction (log2): 0.199

HMALSLPDDMTIVRKDGSSLEVRLKSRTVTEIHFERISDSETFQFSIDQLDETTRELVEQYPVM
soluble fraction (log2): -0.407

HMDSMATVPDLVGKTEDEAKALANDAHLGVQMAGEEASDQEKGKISRQETAAGTQVAEYTTVKYWVSTGTQ
soluble fraction (log2): 0.154

HMNGAITLRVRPSDEGKRLDVFVVSQLTGYTRSFVAGLIGDRHFLVNGQPKKPGYRIKSSDTISGVIPAPA
soluble fraction (log2): 0.157

HMDPYEYQLELEKLINNATELNKKYNYDPLKDKILAADAVKNSLETYVLQNYIVALENEIKQTLNQYQIL
soluble fraction (log2): -0.754

HMQISDTASIQEIAKEIIKSNPKAVEDYKKGKENALQFLVGQLMTKTKGTVHPGAARTILGDILK
soluble fraction (log2): -0.205

HMETALYVEDLDRAVRFYESVMGLNTMSRGVRLVALDAGEGTVLLLFLRGATTSGASFEGGWIPPH
soluble fraction (log2): -0.257

HMDGYTAVDKAVSDQYYTKENQLYFVSMGNFFSLGAKKIEGADISSFQILTTEYARDLQHLYFNGKV
soluble fraction (log2): -0.367

HMVEQVEISILPGEYSDTISQKLLDAGLIDDKAAFSKYINDTNVDNLIQPGTFTVPKGASYEEVAKILT
soluble fraction (log2): -1.35

HMGQQTVEPLSRRELEVLSLLAKGLSNQQIADRLVISVRTVKKHVENIHGKLGVQSRTQAVARARELGLV
soluble fraction (log2): -0.688

HMTKPAEVRIDELMNAAQTLFLAKGVEATTISEIIASVGVAKGTFYHYFESKQHIVEALKKRYID
soluble fraction (log2): -1.03

HMPKLPIIYVLDGHVNKNALTTSGKNKVWIEHELKKHHINSIKDVLIAMTDTEGKFYYQLYD
soluble fraction (log2): -0.0791

HMSPRQVTAVRSGSPMPVLPGEDWRLYDASGALVARGSGAAPIPKSTGLLRLNSEGLDGLADRWIWVL
soluble fraction (log2): -0.154

HMKNNNIIFSEFLKEVENGRVVEVRIQGNNIQGIMSNGKEFTTYSPNYPNLIEKLTETGVSISAAPL
soluble fraction (log2): -0.516

HMNTLPTDELMKYGIINEDLSFSKKLNADDIQKFLQGYTIVADNDKNRATFQLTENNTKLKVIFLER
soluble fraction (log2): -1.69

HMSDIDIDVENDRAALAIAGGKLNHLVGARGEVLDALQELTRLAVQTSLGERSRLMLDIDNFRSD
soluble fraction (log2): 0.0463

HMSAPNPGQMHSWTDTQGRTLQATFIKADATTVTLNWNGRIVPIPLANLNAASQKLARELASAS
soluble fraction (log2): -0.0969

HMEDVPYMIKLPSHHYLTKMVDGSTGWSLVQNSNTVVGSSKEELLKQYPEYEDFIVQEPLNV
soluble fraction (log2): -0.336

HMAKRMRNPNGYGSIVKLSGNRRNPYMVKVNTHMDERYYPVYDILGYYPTWADASIALAKYNDDPYNVS
soluble fraction (log2): 0.0269

HMPRDYYAVLEVSVSSTPVQIRQAYQRLARRYSPDVNFLDRDTEALFEEIVEAYRVLSNPTARTLYDRG
soluble fraction (log2): -3.04

HMTDKLEEEAKKKAMEDALADEMNISKTIVHDGIRELARIGFLDVISRKGIYVADYTFTGNLETLLAVIRY
soluble fraction (log2): -0.0919

HMTIDETKKQQVKDGLKDIPGVTVEFVGDKAVLKGAVTDANRVKIMQIVMAAKVLSDASGLTSK
soluble fraction (log2): 0.237
